Data as given in patent US20020081570A1, “System to detect protein-protein interactions” (priority 2000, published 2002).

Target: T1, syntaxin 1A (Homo sapiens, UniProt Q16623)
T1 construct: expressed in transfected cells; host or cells: yeast (two-hybrid; cotransformations and yeast matings)
Assay: yeast two-hybrid screen (cotransformations and yeast matings)
Format: binding
Details: yeast two hybrid system
Text: The present inventors completed a yeast two-hybrid screen using Syt 1, syntaxin 1A and synaptobrevin 2 (Vamp 2). Recombinant and native Syt-1 and syntaxin 1A were shown previously to interact in a calcium dependent manner. […] Screens performed using two different approaches—cotransformations and yeast matings—gave identical findings.

T1 sequence (Q16623 whole entry, species assumed): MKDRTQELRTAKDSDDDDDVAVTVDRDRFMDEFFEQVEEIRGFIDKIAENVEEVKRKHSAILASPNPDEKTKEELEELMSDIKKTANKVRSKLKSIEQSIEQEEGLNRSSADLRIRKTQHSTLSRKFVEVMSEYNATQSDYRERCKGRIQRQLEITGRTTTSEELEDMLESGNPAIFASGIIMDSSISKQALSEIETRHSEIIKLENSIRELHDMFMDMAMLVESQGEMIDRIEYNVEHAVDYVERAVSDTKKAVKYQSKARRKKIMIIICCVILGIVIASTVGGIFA

Row | Substance | direct interaction with syntaxin 1A
1 | Syt-1: synaptotagmin I protein used in yeast two-hybrid screen | did not
2 | synaptobrevin: synaptobrevin 2 (Vamp 2) protein used in yeast two-hybrid screen | interact directly
